{"source": "patent US20220249679A1", "about": "(Mitsubishi Tanabe Pharma Corporation, priority 2018, published 2022)", "key": {"[1]": {"biological_target": "T1, human CD138 (Homo sapiens, UniProt P18827)", "T1 sequence (P18827 23-310)": "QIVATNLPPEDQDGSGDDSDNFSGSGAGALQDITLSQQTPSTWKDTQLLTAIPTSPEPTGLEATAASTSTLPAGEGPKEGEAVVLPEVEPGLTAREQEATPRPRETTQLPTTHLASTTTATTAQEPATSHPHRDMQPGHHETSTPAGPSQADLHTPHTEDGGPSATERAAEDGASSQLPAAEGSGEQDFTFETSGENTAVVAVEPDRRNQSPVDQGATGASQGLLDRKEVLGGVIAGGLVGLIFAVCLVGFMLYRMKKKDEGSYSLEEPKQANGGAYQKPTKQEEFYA", "test": "FACS binding to Expi293 cells transfected with human CD138", "details": "3-fold dilutions from 33.3 μg/mL", "method": "(§1) 12P16F6 hIgG1 or 13P30A7 hIgG1 were tested for cross-reactivity to cynomolgus monkey CD138. Antibodies that cross-react with CD138 from cynomolgus monkey (cyno) have an advantage that they can be tested for toxicity in this strain of non-human primate prior to conducting efficacy trials. Briefly, a vector directing the cell-surface expression of human CD138 or cyno CD138 was transfected in Expi293 cells. Binding of 12P16F6 hIgG1 and 13P30A7 hIgG1 to transfected Expi293 cells was tested at 3-fold dilutions starting at 33.3 μg/mL."}, "[2]": {"system": "cyno CD138", "sequence (as listed by the source)": "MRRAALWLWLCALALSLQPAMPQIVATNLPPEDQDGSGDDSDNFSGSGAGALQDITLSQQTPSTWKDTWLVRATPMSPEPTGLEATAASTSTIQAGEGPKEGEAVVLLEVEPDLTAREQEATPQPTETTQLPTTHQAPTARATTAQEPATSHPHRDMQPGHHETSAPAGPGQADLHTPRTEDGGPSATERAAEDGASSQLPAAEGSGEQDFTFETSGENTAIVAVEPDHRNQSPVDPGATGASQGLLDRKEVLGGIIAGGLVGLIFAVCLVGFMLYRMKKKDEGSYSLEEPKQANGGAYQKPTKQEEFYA", "test": "FACS binding to Expi293 cells transfected with cyno CD138", "parameters": "species or system cynomolgus monkey", "details": "3-fold dilutions from 33.3 μg/mL", "method": "as §1"}}, "data": [{"substance": "Secukinumab [reference compound]", "values": [{"measurement": "binding to human CD138 expressing cells", "setting": "[1]", "value": "little or no specific binding"}, {"measurement": "binding to cynomolgus CD138 expressing cells", "setting": "[2]", "value": "little or no specific binding"}]}]}
